In article PMC13397619:

B1: NLV3 TCR beta chain (CDR3β only) (parent)
chain: ASSPTGGSPSPLH
partner: MLVPMVATV

Variants of: B1
Assay: T-Switch: Jurkat TCRβ−/− cells expressing a CDR3 saturation-mutagenesis library, stained with two peptide-HLA-A*02:01 tetramers (original and novel peptide) plus anti-CD3, FACS-sorted into four gates, gDNA sequenced
Details: with HLA-A*02:01 with peptide … (NLV 3-1, the original bait), tetramers 1 µg/mL, 30 min on ice, DP and SW gates expanded about 10 days between rounds ('two to three rounds of selection' in the Methods), gate SP: higher = more of the variant in the gate that binds the original peptide and not the novel one = retained original binding. Fold enrichment of the CDR3 variant in one FACS gate of a two-tetra, unresolved parent, parent is a CDR3 fragment, scale: fold enrichment, numbering: sequential-on-construct, sequence …

Variant	enrichment
[…] (CDR3 as printed); S8Q derived by comparing it with the table's wild-type CDR3 ASSPTGGSPSPLH	0
[…] (CDR3 as printed); S2P derived by comparing it with the table's wild-type CDR3 ASSPTGGSPSPLH	0
[…] (CDR3 as printed); S8L derived by comparing it with the table's wild-type CDR3 ASSPTGGSPSPLH	0
[…] (CDR3 as printed); S3P derived by comparing it with the table's wild-type CDR3 ASSPTGGSPSPLH	0
[…] (CDR3 as printed); P9I derived by comparing it with the table's wild-type CDR3 ASSPTGGSPSPLH	0
[…] (CDR3 as printed); S2V derived by comparing it with the table's wild-type CDR3 ASSPTGGSPSPLH	1.18
[…] (CDR3 as printed); L12C derived by comparing it with the table's wild-type CDR3 ASSPTGGSPSPLH	4.3
[…] (CDR3 as printed); G6M derived by comparing it with the table's wild-type CDR3 ASSPTGGSPSPLH	0
[…] (CDR3 as printed); S8W derived by comparing it with the table's wild-type CDR3 ASSPTGGSPSPLH	0
[…] (CDR3 as printed); S2C derived by comparing it with the table's wild-type CDR3 ASSPTGGSPSPLH	5.16
[…] (CDR3 as printed); P11N derived by comparing it with the table's wild-type CDR3 ASSPTGGSPSPLH	0
[…] (CDR3 as printed); G6V derived by comparing it with the table's wild-type CDR3 ASSPTGGSPSPLH	0
[…] (CDR3 as printed); A1S derived by comparing it with the table's wild-type CDR3 ASSPTGGSPSPLH	4.29
[…] (CDR3 as printed); P9A derived by comparing it with the table's wild-type CDR3 ASSPTGGSPSPLH	4.97
[…] (CDR3 as printed); S2N derived by comparing it with the table's wild-type CDR3 ASSPTGGSPSPLH	0
[…] (CDR3 as printed); A1N derived by comparing it with the table's wild-type CDR3 ASSPTGGSPSPLH	0
[…] (CDR3 as printed); P4I derived by comparing it with the table's wild-type CDR3 ASSPTGGSPSPLH	0.897
[…] (CDR3 as printed); G6H derived by comparing it with the table's wild-type CDR3 ASSPTGGSPSPLH	0
[…] (CDR3 as printed); H13V derived by comparing it with the table's wild-type CDR3 ASSPTGGSPSPLH	5.71
[…] (CDR3 as printed); A1R derived by comparing it with the table's wild-type CDR3 ASSPTGGSPSPLH	0
[…] (CDR3 as printed); S3Y derived by comparing it with the table's wild-type CDR3 ASSPTGGSPSPLH	0

Variant	enrichment
[…] (CDR3 as printed); S8N derived by comparing it with the table's wild-type CDR3 ASSPTGGSPSPLH	0
[…] (CDR3 as printed); S3D derived by comparing it with the table's wild-type CDR3 ASSPTGGSPSPLH	3.32
[…] (CDR3 as printed); G7S derived by comparing it with the table's wild-type CDR3 ASSPTGGSPSPLH	0
[…] (CDR3 as printed); S2I derived by comparing it with the table's wild-type CDR3 ASSPTGGSPSPLH	0
[…] (CDR3 as printed); P4W derived by comparing it with the table's wild-type CDR3 ASSPTGGSPSPLH	0
[…] (CDR3 as printed); P9L derived by comparing it with the table's wild-type CDR3 ASSPTGGSPSPLH	1.13
[…] (CDR3 as printed); P9F derived by comparing it with the table's wild-type CDR3 ASSPTGGSPSPLH	0
[…] (CDR3 as printed); G6I derived by comparing it with the table's wild-type CDR3 ASSPTGGSPSPLH	0
[…] (CDR3 as printed); H13W derived by comparing it with the table's wild-type CDR3 ASSPTGGSPSPLH	8.46
[…] (CDR3 as printed); P4D derived by comparing it with the table's wild-type CDR3 ASSPTGGSPSPLH	0
[…] (CDR3 as printed); H13D derived by comparing it with the table's wild-type CDR3 ASSPTGGSPSPLH	8.55
[…] (CDR3 as printed); G7Q derived by comparing it with the table's wild-type CDR3 ASSPTGGSPSPLH	0
[…] (CDR3 as printed); S3F derived by comparing it with the table's wild-type CDR3 ASSPTGGSPSPLH	0
[…] (CDR3 as printed); G6C derived by comparing it with the table's wild-type CDR3 ASSPTGGSPSPLH	0
[…] (CDR3 as printed); G7W derived by comparing it with the table's wild-type CDR3 ASSPTGGSPSPLH	0
[…] (CDR3 as printed); G7K derived by comparing it with the table's wild-type CDR3 ASSPTGGSPSPLH	0
[…] (CDR3 as printed); S10E derived by comparing it with the table's wild-type CDR3 ASSPTGGSPSPLH	5.53
[…] (CDR3 as printed); S8I derived by comparing it with the table's wild-type CDR3 ASSPTGGSPSPLH	0
[…] (CDR3 as printed); A1C derived by comparing it with the table's wild-type CDR3 ASSPTGGSPSPLH	1.12
[…] (CDR3 as printed); P4C derived by comparing it with the table's wild-type CDR3 ASSPTGGSPSPLH	0
[…] (CDR3 as printed); H13F derived by comparing it with the table's wild-type CDR3 ASSPTGGSPSPLH	4.3

Variant	enrichment
[…] (CDR3 as printed); P4L derived by comparing it with the table's wild-type CDR3 ASSPTGGSPSPLH	0
[…] (CDR3 as printed); P9D derived by comparing it with the table's wild-type CDR3 ASSPTGGSPSPLH	0
[…] (CDR3 as printed); G7A derived by comparing it with the table's wild-type CDR3 ASSPTGGSPSPLH	0
[…] (CDR3 as printed); L12G derived by comparing it with the table's wild-type CDR3 ASSPTGGSPSPLH	0
[…] (CDR3 as printed); G7H derived by comparing it with the table's wild-type CDR3 ASSPTGGSPSPLH	0
[…] (CDR3 as printed); P11E derived by comparing it with the table's wild-type CDR3 ASSPTGGSPSPLH	4.19
[…] (CDR3 as printed); G6W derived by comparing it with the table's wild-type CDR3 ASSPTGGSPSPLH	0
[…] (CDR3 as printed); P11D derived by comparing it with the table's wild-type CDR3 ASSPTGGSPSPLH	0
[…] (CDR3 as printed); S2E derived by comparing it with the table's wild-type CDR3 ASSPTGGSPSPLH	0
[…] (CDR3 as printed); T5D derived by comparing it with the table's wild-type CDR3 ASSPTGGSPSPLH	0
[…] (CDR3 as printed); A1Y derived by comparing it with the table's wild-type CDR3 ASSPTGGSPSPLH	0
[…] (CDR3 as printed); G7L derived by comparing it with the table's wild-type CDR3 ASSPTGGSPSPLH	0
[…] (CDR3 as printed); S8K derived by comparing it with the table's wild-type CDR3 ASSPTGGSPSPLH	0
[…] (CDR3 as printed); S2A derived by comparing it with the table's wild-type CDR3 ASSPTGGSPSPLH	3.53
[…] (CDR3 as printed); S10G derived by comparing it with the table's wild-type CDR3 ASSPTGGSPSPLH	14.9
[…] (CDR3 as printed); P9H derived by comparing it with the table's wild-type CDR3 ASSPTGGSPSPLH	0
[…] (CDR3 as printed); L12E derived by comparing it with the table's wild-type CDR3 ASSPTGGSPSPLH	0
[…] (CDR3 as printed); G6K derived by comparing it with the table's wild-type CDR3 ASSPTGGSPSPLH	0
[…] (CDR3 as printed); L12A derived by comparing it with the table's wild-type CDR3 ASSPTGGSPSPLH	0
[…] (CDR3 as printed); L12I derived by comparing it with the table's wild-type CDR3 ASSPTGGSPSPLH	1.14
[…] (CDR3 as printed); T5V derived by comparing it with the table's wild-type CDR3 ASSPTGGSPSPLH	19.2

Variant	enrichment
[…] (CDR3 as printed); S3N derived by comparing it with the table's wild-type CDR3 ASSPTGGSPSPLH	4.09
[…] (CDR3 as printed); P9T derived by comparing it with the table's wild-type CDR3 ASSPTGGSPSPLH	0.619
[…] (CDR3 as printed); S8R derived by comparing it with the table's wild-type CDR3 ASSPTGGSPSPLH	0
[…] (CDR3 as printed); S3H derived by comparing it with the table's wild-type CDR3 ASSPTGGSPSPLH	0.783
[…] (CDR3 as printed); S8T derived by comparing it with the table's wild-type CDR3 ASSPTGGSPSPLH	0
[…] (CDR3 as printed); P9M derived by comparing it with the table's wild-type CDR3 ASSPTGGSPSPLH	0
[…] (CDR3 as printed); S2K derived by comparing it with the table's wild-type CDR3 ASSPTGGSPSPLH	0
[…] (CDR3 as printed); T5A derived by comparing it with the table's wild-type CDR3 ASSPTGGSPSPLH	2.2
[…] (CDR3 as printed); P11A derived by comparing it with the table's wild-type CDR3 ASSPTGGSPSPLH	7.15
[…] (CDR3 as printed); A1V derived by comparing it with the table's wild-type CDR3 ASSPTGGSPSPLH	0.479
[…] (CDR3 as printed); S8Y derived by comparing it with the table's wild-type CDR3 ASSPTGGSPSPLH	8.08
[…] (CDR3 as printed); A1I derived by comparing it with the table's wild-type CDR3 ASSPTGGSPSPLH	0
[…] (CDR3 as printed); P4H derived by comparing it with the table's wild-type CDR3 ASSPTGGSPSPLH	0
[…] (CDR3 as printed); G7V derived by comparing it with the table's wild-type CDR3 ASSPTGGSPSPLH	0
[…] (CDR3 as printed); P4R derived by comparing it with the table's wild-type CDR3 ASSPTGGSPSPLH	0.316
[…] (CDR3 as printed); T5G derived by comparing it with the table's wild-type CDR3 ASSPTGGSPSPLH	0
[…] (CDR3 as printed); L12D derived by comparing it with the table's wild-type CDR3 ASSPTGGSPSPLH	0
[…] (CDR3 as printed); L12K derived by comparing it with the table's wild-type CDR3 ASSPTGGSPSPLH	0
[…] (CDR3 as printed); P9W derived by comparing it with the table's wild-type CDR3 ASSPTGGSPSPLH	0
[…] (CDR3 as printed); S8P derived by comparing it with the table's wild-type CDR3 ASSPTGGSPSPLH	0

Same assay, conditions: with HLA-A*02:01 with peptide … (NLV 3-1, the original bait), tetramers 1 µg/mL, 30 min on ice, DP and SW gates expanded about 10 days between rounds ('two to three rounds of selection' in the Methods), gate SP: higher = more of the variant in the gate that binds the original peptide and not the novel one = retained original binding. Fold enrichment of the CDR3 variant in one FACS gate of a two-tetra, unresolved parent, parent is a CDR3 fragment, zero in all gates, scale: fold enrichment, numbering: …

Variant	enrichment
[…] (CDR3 as printed); G7P derived by comparing it with the table's wild-type CDR3 ASSPTGGSPSPLH	0
[…] (CDR3 as printed); S2L derived by comparing it with the table's wild-type CDR3 ASSPTGGSPSPLH	0
